Data from paper PMC11328107.

How the values were obtained:
[1] = biological target: PCSK9 (Homo sapiens) (UniProt Q8NBP7); conditions: cited from earlier work
[2] = biological target: proprotein convertase subtilisin/kexin type 9 (PCSK9) (UniProt Q8NBP7)
[3] = biological target: proprotein convertase subtilisin/kexin type 9 (PCSK9) (UniProt Q8NBP7); remark: listed apart in the source
[4] = biological target: His‐tagged PCSK9 of the CircuLex PCSK9‐LDLR in vitro binding assay kit (UniProt Q8NBP7); assay: ELISA; CircuLex PCSK9-LDLR binding kit; LDLR-AB domain immobilised on the plate; His-tagged PCSK9 70 ng/mL alone or preincubated with HFn-Pep2-8 1–280 nM; 2 h; detected by biotinylated anti-His antibody
[5] = biological target: transferrin receptor 1 (CD71), His‐tagged (UniProt P02786); assay: BLI; Octet N1; His-tagged CD71 immobilised on Ni-NTA tip; HFn-Pep2-8 2.5–1580 nM; PBS with 0.02% Tween 20, 0.1% BSA, 0.05% NaN3; KD from plateau values (steady state)
Sequence of transferrin receptor 1 (CD71), His‐tagged (P02786 whole entry): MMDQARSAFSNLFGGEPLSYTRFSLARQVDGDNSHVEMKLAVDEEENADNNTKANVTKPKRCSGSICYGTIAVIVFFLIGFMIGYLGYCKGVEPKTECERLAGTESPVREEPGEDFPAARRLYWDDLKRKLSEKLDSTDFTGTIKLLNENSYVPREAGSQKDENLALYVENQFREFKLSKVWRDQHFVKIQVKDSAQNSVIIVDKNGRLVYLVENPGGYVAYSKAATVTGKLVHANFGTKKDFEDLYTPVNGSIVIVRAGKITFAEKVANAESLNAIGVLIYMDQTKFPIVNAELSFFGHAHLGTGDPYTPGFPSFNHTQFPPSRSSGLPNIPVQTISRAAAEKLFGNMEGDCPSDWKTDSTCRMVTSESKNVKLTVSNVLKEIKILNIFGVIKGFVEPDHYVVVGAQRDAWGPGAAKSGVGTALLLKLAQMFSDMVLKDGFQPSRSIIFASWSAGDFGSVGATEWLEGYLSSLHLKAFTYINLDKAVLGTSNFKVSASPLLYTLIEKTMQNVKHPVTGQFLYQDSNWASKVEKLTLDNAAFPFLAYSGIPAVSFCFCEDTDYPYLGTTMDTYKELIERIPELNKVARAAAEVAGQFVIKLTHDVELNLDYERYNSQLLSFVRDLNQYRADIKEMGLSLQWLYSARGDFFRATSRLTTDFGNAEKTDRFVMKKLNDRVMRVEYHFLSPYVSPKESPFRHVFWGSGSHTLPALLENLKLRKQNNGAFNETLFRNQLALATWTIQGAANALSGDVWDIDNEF

Sequence of proprotein convertase subtilisin/kexin type 9 (PCSK9) (Q8NBP7 153-692): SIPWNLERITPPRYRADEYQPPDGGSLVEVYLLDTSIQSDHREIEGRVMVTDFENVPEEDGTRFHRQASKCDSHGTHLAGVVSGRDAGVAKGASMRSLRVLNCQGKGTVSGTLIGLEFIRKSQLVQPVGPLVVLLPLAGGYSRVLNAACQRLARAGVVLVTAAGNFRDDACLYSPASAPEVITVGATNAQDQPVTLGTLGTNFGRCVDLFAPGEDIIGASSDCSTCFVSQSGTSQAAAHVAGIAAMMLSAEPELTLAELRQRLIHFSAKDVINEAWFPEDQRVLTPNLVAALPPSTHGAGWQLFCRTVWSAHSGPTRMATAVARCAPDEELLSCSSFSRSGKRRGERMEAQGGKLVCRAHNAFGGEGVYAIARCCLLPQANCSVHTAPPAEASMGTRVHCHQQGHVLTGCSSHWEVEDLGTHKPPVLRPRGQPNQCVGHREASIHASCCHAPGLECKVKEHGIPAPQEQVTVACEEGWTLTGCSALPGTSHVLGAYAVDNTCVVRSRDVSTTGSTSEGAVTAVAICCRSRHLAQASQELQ
Sequence of His‐tagged PCSK9 of the CircuLex PCSK9‐LDLR in vitro binding assay kit (Q8NBP7 153-692): as above
Sequence of PCSK9 (Homo sapiens) (Q8NBP7 153-692): as above

Alirocumab
Kd [1]: 0.52 nM

HFn‐Pep2‐8 (human H ferritin with Pep2‐8 and a four‐glycine linker fused to the N‐terminus of each subunit) (designed binder)
LDLR at the plasma membrane of HepG2 cells (immunofluorescence, MFI) after 8 h with 7 μg/mL PCSK9 plus 0.1 or 1 μM HFn-Pep2-8; blocks PCSK9 binding to LDLR [2]: 90% | Dil-LDL uptake by HepG2 cells (MFI) with 7 μg/mL PCSK9 plus 0.1 μM (81.12%) or 1 μM HFn-Pep2-8; blocks PCSK9 binding to LDLR [3]: 117% | IC50 [4]: 80.3 nM

HFn‐Pep2‐8 (human H ferritin with Pep2‐8 and a four‐glycine linker fused to the N‐terminus of each subunit) (designed binder; other documents disagree on this pair)
Kd [5]: 27 nM
